In the RNAGym collection of RNA variant scans (doi:10.7554/elife.90254):

B1: OR4K15 (parent)
chain: GUUAACGGUCAUAGGCCAUGGAAACUAGGAGCACCAUUUCGCUGCCAGUGAAGAAAUGAACAAAGAAAAUCUGGGCCAGGCAGGCAUCAAAAGAAAUAGUCUUGCGCUCAACCAGAAAGUCUGUAAUCAUUUUAAGGGUA

Variants of: B1
Assay: self-cleavage, relative activity (ratio to wild type); higher = more cleavage; in vitro, sequencing; the parent is a self-cleaving ribozyme

| Variant | self-cleavage |
| --- | --- |
| GUUAACGGUCAUAGGCCAUGGAAACUAGGAGCACCAUUUCGCUGCCAGUGAAGAAAUGAACAAAGAAGAUCUGGGCCAGGCAGGCGUCAAAAGAAAUAGUCUUGCGCUCAACCAGAAAGUCUGUAAUCAUUUUAAGGGUA [A68G A86G] | 1.41 |
| GUUAACGGUCAUAGGCCAUGGAAACUAGGAGCACCAUUUCGCUGCCAGUGAAGAAAUGAACAAAGAAGAUCUGGGCCAGGCAGGCUUCAAAAGAAAUAGUCUUGCGCUCAACCAGAAAGUCUGUAAUCAUUUUAAGGGUA [A68G A86U] | 1.51 |
| GUUAACGGUCAUAGGCCAUGGAAACUAGGAGCACCAUUUCGCUGCCAGUGAAGAAAUGAACAAAGAAGAUCUGGGCCAGGCAGGCAUCAAAAGAAAUAGUCUUGCGCUCAACCCGAAAGUCUGUAAUCAUUUUAAGGGUA [A68G A114C] | 0.04 |
| GUUAACGGUCAUAGGCCAUGGAAACUAGGAGCACCAUUUCGCUGCCAGUGAAGAAAUGAACAAAGAAGAUCUGGGCCAGGCAGGCAUCAAAAGAAAUAGUCUUGCGCUCAACCGGAAAGUCUGUAAUCAUUUUAAGGGUA [A68G A114G] | 0.68 |
| GUUAACGGUCAUAGGCCAUGGAAACUAGGAGCACCAUUUCGCUGCCAGUGAAGAAAUGAACAAAGAAGAUCUGGGCCAGGCAGGCAUCAAAAGAAAUAGUCUUGCGCUCAACCUGAAAGUCUGUAAUCAUUUUAAGGGUA [A68G A114U] | 0.04 |
| GUUAACGGUCAUAGGCCAUGGAAACUAGGAGCACCAUUUCGCUGCCAGUGAAGAAAUGAACAAAGAACAUCUGGGCCAGGCAGGCAUCAAAAGAAAUAGUCUUGCGCUCAACCAGAAAGUCUGUAAUCAUCUUAAGGGUA [A68C U131C] | 0.94 |
| GUUAACGGUCAUAGGCCAUGGAAACUAGGAGCACCAUUUCGCUGCCAGUGAAGAAAUGAACAAAGAAGAUCUGGGCCAGGCAGGCAUCAAAUGAAAUAGUCUUGCGCUCAACCAGAAAGUCUGUAAUCAUUUUAAGGGUA [A68G A92U] | 1.87 |
| GUUAACGGUCAUAGGCCAUGGAAACUAGGAGCACCAUUUCGCUGCCAGUGAAGAAAUGAACAAAGAAGAUCUGGGCCAGGCAGGCAUCAAAAGAGAUAGUCUUGCGCUCAACCAGAAAGUCUGUAAUCAUUUUAAGGGUA [A68G A95G] | 1.98 |
| GUUAACGGUCAUAGGCCAUGGAAACUAGGAGCACCAUUUCGCUGCCAGUGAAGAAAUGAACAAAGAAGAUCUGGGCCAGGCAGGCAUCCAAAGAAAUAGUCUUGCGCUCAACCAGAAAGUCUGUAAUCAUUUUAAGGGUA [A68G A89C] | 1.1 |
| GUUAACGGUCAUAGGCCAUGGAAACUAGGAGCACCAUUUCGCUGCCAGUGAAGAAAUGAACAAAGAAGAUCUGGGCCAGGCAGGCAUCUAAAGAAAUAGUCUUGCGCUCAACCAGAAAGUCUGUAAUCAUUUUAAGGGUA [A68G A89U] | 2.23 |
| GUUAACGGUCAUAGGCCAUGGAAACUAGGAGCACCAUUUCGCUGCCAGUGAAGAAAUGAACAAAGAAGAUCUGGGCCAGGCAGGCAUCAUAAGAAAUAGUCUUGCGCUCAACCAGAAAGUCUGUAAUCAUUUUAAGGGUA [A68G A90U] | 1.58 |
| GUUAACGGUCAUAGGCCAUGGAAACUAGGAGCACCAUUUCGCUGCCAGUGAAGAAAUGAACAAAGAAGAUCUGGGCCAGGCAGGCAUCAGAAGAAAUAGUCUUGCGCUCAACCAGAAAGUCUGUAAUCAUUUUAAGGGUA [A68G A90G] | 1.17 |
| GUUAACGGUCAUAGGCCAUGGAAACUAGGAGCACCAUUUCGCUGCCAGUGAAGAAAUGAACAAAGAAGAUCUGGGCCAGGCAGGCAUCAAAAGAAAUAGUCUUGCGCUCAACCAGAAAGUCUGUGAUCAUUUUAAGGGUA [A68G A125G] | 0.48 |
| GUUAACGGUCAUAGGCCAUGGAAACUAGGAGCACCAUUUCGCUGCCAGUGAAGAAAUGAACAAAGAAGAUCUGGGCCAGGCAGGCAUCAAAAGAAAUAGUCUUGCGCUCAACCAGAAAGUCUGUAAUCAUUUUAAGGGUA [A68G] | 0.98 |
| GUUAACGGUCAUAGGCCAUGGAAACUAGGAGCACCAUUUCGCUGCCAGUGAAGAAAUGAACAAAGAAGAUCUGGGCCAGGCAGGCAUCAAAAGAAGUAGUCUUGCGCUCAACCAGAAAGUCUGUAAUCAUUUUAAGGGUA [A68G A96G] | 1.04 |
| GUUAACGGUCAUAGGCCAUGGAAACUAGGAGCACCAUUUCGCUGCCAGUGAAGAAAUGAACAAAGAAGAUCUGGGCCAGGCAGGCAUCAAAAGAAAUAGUCUUGCGCUCAACCAGUAAGUCUGUAAUCAUUUUAAGGGUA [A68G A116U] | 0.21 |
| GUUAACGGUCAUAGGCCAUGGAAACUAGGAGCACCAUUUCGCUGCCAGUGAAGAAAUGAACAAAGAAGAUCUGGGCCAGGCUGGCAUCAAAAGAAAUAGUCUUGCGCUCAACCAGAAAGUCUGUAAUCAUUUUAAGGGUA [A68G A82U] | 0.22 |
| GUUAACGGUCAUAGGCCAUGGAAACUAGGAGCACCAUUUCGCUGCCAGUGAAGAAAUGAACAAAGAAGAUCUGGGCCAGGCCGGCAUCAAAAGAAAUAGUCUUGCGCUCAACCAGAAAGUCUGUAAUCAUUUUAAGGGUA [A68G A82C] | 0.2 |
| GUUAACGGUCAUAGGCCAUGGAAACUAGGAGCACCAUUUCGCUGCCAGUGAAGAAAUGAACAAAGAAGAUCUGGGCCAGGCGGGCAUCAAAAGAAAUAGUCUUGCGCUCAACCAGAAAGUCUGUAAUCAUUUUAAGGGUA [A68G A82G] | 0.62 |
| GUUAACGGUCAUAGGCCAUGGAAACUAGGAGCACCAUUUCGCUGCCAGUGAAGAAAUGAACAAAGAAGAUCUGGGCCAGGCAGGCAUCAAGAGAAAUAGUCUUGCGCUCAACCAGAAAGUCUGUAAUCAUUUUAAGGGUA [A68G A91G] | 1.18 |
| GUUAACGGUCAUAGGCCAUGGAAACUAGGAGCACCAUUUCGCUGCCAGUGAAGAAAUGAACAAAGAAGAUCUGGGCCAGGCAGGCAUCAAAAGAAAUAGUCUUGCGCUCAGCCAGAAAGUCUGUAAUCAUUUUAAGGGUA [A68G A111G] | 0.01 |
